Laboratory results from the domain aggregation screens of Martell et al. (2025).

Test: soluble fraction after stress (log2 fold change); higher = more stays soluble; pooled small domains, quantitative proteomics
Details: stress: pH 4
Procedure, shortened: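 Values are log2 fold changes, and higher ones mean more of the domain stayed soluble. Each fold change reflects the soluble amount of a domain after acid stress and is taken as a measure of aggregation propensity. The stress was pH 4, applied to pooled custom libraries of small protein domains analysed by high-throughput quantitative proteomics.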

Compared with “HMASAEDDLTRRARKLLTTSSMLKTLQPDTGERLQWLPQVVRLLAEGVEAPRIVVLIRRAMESG”, “HMASALDFGRYVRSQYSLQEFPLILIAPLNDPHPKEVVRELFNLYLTKPITRSRLFDSLMTVLG” is lower in “soluble fraction (log2)” value: -0.00608 for the first, -0.499 for the second.

First: HMASDQGAGALREVSAFFEKHGRVPDPDAVDHDEMRLGSIWASIKSAPTDQMRLEDRFGLLD
Second: HMASDYYTTTANLNLRSGAGTTYGSLIIIEKGDTVKLLENVNDHWVKIQYDDKIGYVAMSYLLPIE
The “soluble fraction (log2)” value of the first is lower: -0.613 for the first, -0.113 for the second.

First: HMASEKSEQLYQQMKLDIAGMPPDTRLPSIRALMRSYSVSQLLIDRTLGRLREEGALRKRFDGLYTYL
Second: HMASELQQVQALLESQRYNEALILIETTIGKGASESTELLFARADVFASSGRHDEAEQAYREL
The “soluble fraction (log2)” value of the first is higher: -0.0945 for the first, -0.45 for the second.

“HMASELVSADEKYSGLVSYLLGRVVVVDQIDHAIALAKKYRYSLRIVTLDGELLSPGGSMTGGAFKNS” and “HMASEVEVPNVYGMPSSLAERELSAVGLLADYRSRTGTGQQPGTVVHVKPDAGTVVSRGSTVVLFIA” are within 0.2 log units of each other in “soluble fraction (log2)” value: 0.2 for the first, 0.138 for the second.

Compared with “HMASFASRAEEVMTKLLANGQPRIKEVADAMHLSSRTLQRRLEREGVSFAELLDRLRKRLAHDMLAHS”, “HMASFGDLSGLKRTYPPQGLPDASRIADFLIARNEGDLSVEQVKALERFLFEHPDHERTARLVAATRVPA” is lower in “soluble fraction (log2)” value: ≥ 0.43 for the first, -0.115 for the second.

First: HMASFTDAQALEVKDLYPDWSKIPEGTHLEAGQRVRYNGNLYKVRTGQAHDKQSTWTPTDAASLFEAID
Second: HMASIEPLKTSIRIIWYINGEKDSETLLNTPPTAANKANAQKIADMVEQQIQMGIFNRDAVFPSSPKRQ
The “soluble fraction (log2)” value of the first is higher: 0.0558 for the first, -0.559 for the second.

Compared with “HMASIGVGTIVRVANAVNYNGVKVKAWFNDEGYEVTELSGDRAVLKHNGDLFDAFHVSDLEA”, “HMASINRIENKNGKVVYRIIVSLGYDKQGKKLKKTITYNVNQTATKKQQENEALKYALDIEDKIKNGHD” is higher in “soluble fraction (log2)” value: -0.771 for the first, -0.138 for the second.

First: HMASITLDQAKEIALTHAGQTADAVWFEKAEQDYDDGILVYELEFAAKGTEYEYEIDAQTGAIREYKWDD
Second: HMASLSEREHDVAVLILQGKTYAEIGQAIFISPRTVEHHVASIRRRLEAKSRSDLIAKLRLTIGGTED
The “soluble fraction (log2)” value of the first is higher: 0.0206 for the first, -1.15 for the second.

Going from “HMASPTKQLVLEALRASGQPMSSMELSAQIGVSRATAQRYLSTLASAGEVKIQLRYGTTGRPEQEFLAIE” to “HMASQFSLIVTQADAGMRLDSLLAVSGAYPSRSAAVKQIEAGKVLVNGLARSKRSIVAPGDTIVYEEIP”, the “soluble fraction (log2)” value falls from 0.22 to -0.0502.

Going from “HMASQVERGAVVVTDQRIFFIGVSSEGIEVHGTKIFGMSEKAPLYSHMKGLKKGDSFQFNGLKYVIQDIY” to “HMASRKTERINRLIDVLQHATSRVPASVLSKILGIGERSVRNYVSEVNEQGQFRIDSSSGGYRLVA”, the “soluble fraction (log2)” value rises from -0.916 to -0.0154.

Compared with “HMASRTLSYSEFMSRVDSGDVTSVTLDGERIIMRTSNNQEFLSIKPEGEDISERLLAKNIEVRAEAQQ”, “HMASVGTHIKRLRAAKRMTQEELAEQLHVTRQAVSAWETGKALPDVEMLERIAAALDADVTEVIYGA” is higher in “soluble fraction (log2)” value: -1.58 for the first, -0.24 for the second.

“HMATAATGIINNNYVNVRSGPATTYNIVGRLDQGSSIEILGSKNDWYQIKTKQLNGWVKNDFINLQK” and “HMATETELNLQLMRIIDELHTDHNTWGSRKITDYLRLQGYEINRKRIQRLMDVMDIQVVYPK” are within 0.2 log units of each other in “soluble fraction (log2)” value: 0.14 for the first, -0.00483 for the second.

Going from “HMATEVEVPDVVGRQMALATQLLEARKLRVNVAEIYDEKTPPGQVVSQSPEAGSSVKEERVVTIYVSR” to “HMATGGKIYIGMNDNGKVVGVSDADKLLEDIPNKVRDVLGIIVDVNLLEENGLKYIEIDVPPYSN”, the “soluble fraction (log2)” value falls from 0.158 to -0.477.

Going from “HMATGIKAVDNVFGWMNLEQVAKTVGLDIPSVLRASGLPEDTPVDISIKKIPGVDDEELKDSLRQYIEKS” to “HMATGTVKWFNPNKGFGFIQQDDASKDVFVHSNELNGVYINEGDKVEFDVVETEKGLSAQNIKK”, the “soluble fraction (log2)” value rises from -0.237 to 0.0939.

First: HMATHGRRAVIELREKIVSGELPGGTRLFEVSLAETLDISRTPVREALSRLAEEGLLDRLPNGGFVVRR
Second: HMATIGVGSKVTLTTYVDWVGNGLLKTRDFYFVSELNGKRAVLRADSMNGAIYAAVNIDNLRI
The “soluble fraction (log2)” value of the first is lower: -1.39 for the first, -0.103 for the second.

First: HMATINGIEKYLSSGLIPGIGPHTAKKLVEKFGLDTLDIMQYNPDRLTEVEGIGDKKAAKISEAFQEQK
Second: HMATKVNSGVTVRDLAELLGLSSADLIKKLMTMGEMATLTQTLTDDSVKAIADEYDRKIEIVSAAQ
The “soluble fraction (log2)” value of the first is higher: -0.191 for the first, -0.771 for the second.

Going from “HMATLTPLGRLQLARYHAQERATLAATAERFQVSTTTVRRWVGRYHQVVAAGGRPTTADMQDRPSRP” to “HMATMSIDERILEIRSRAGLTQQEMADRLFVTRQAVSRWERGETVPGIDTLRLIAEAFDVRVDQILEL”, the “soluble fraction (log2)” value falls from -0.00504 to -1.11.

“HMATQMSSARRGIATDEMKQVAKDEDVTLDWLLPKIAIGSIIIPSNNVRPQKIHNVGIGKGMKTKVN” and “HMATTTEPTSPPAATASLEAKINWLFLIFRNKKTVTASEQKFHAEDASTVVGKETLTDDGTTMTKGETAAG” are within 0.2 log units of each other in “soluble fraction (log2)” value: -0.246 for the first, -0.437 for the second.

Going from “HMATVELELKPEELRAGMILTKDLISGTGMMLLNKGVTLDNVKVEAIQRYYQLDPPLHGVFALVHGK” to “HMATVGENIRRYRKAQNLSAAKLAEKVGLTQGAILHYERGIRTPGISQLEKIAHALNVSPRM”, the “soluble fraction (log2)” value rises from -0.896 to 0.114.

First: HMATVPNVVGLSEEKAKSRLANNGLNVSVTTEEVSDKSKDGIVSSQTSEGDTVKQGATITITVGKYVEK
Second: HMATYDIDALKVDLPSAKELAQFVYDKTDGLVSLDLIGKPKEEQYIVAKNALEGKKVPAEYLTGFNPY
The “soluble fraction (log2)” value of the first is higher: -0.0691 for the first, -0.273 for the second.

Compared with “HMATYTPYDKQGAKLWRVTAYLGMDSVTGKQRNMKKGGFKTKKEAQLYYNQVKLDFENGTLDQ”, “HMAVEQLKSQIGGFLKANREQSFSAQNMADGLRMNSAAGYQDVVNAMNALVRDGEAVEKDGQFSYNVN” is lower in “soluble fraction (log2)” value: 0.22 for the first, -0.0292 for the second.

“HMAVETYRVKKSDTMQTIADRFGLSVEELLEYNQAYKTRELRARDILIIPSRKERKKLQQQKAQAAAQVVQ” and “HMAVGTASNLIGKDIEAYAPIDGSQSSDDTKTISGKVESVHIKDGVVYMNVKDSQSENIIEVEYGALIKVN” are within 0.2 log units of each other in “soluble fraction (log2)” value: 0.404 for the first, 0.247 for the second.

Compared with “HMAVKPIDRLRSLMAESNVTDAELQKVVADKGHYAADAPIDSYSEKFISGWLIKYWSQILNLINADRTVL”, “HMAVKTEHGRIWKALPEGQDGYREDVPMFTSKSMYDGSAGIGIFLIRLYEATSDERWLKEAEEAAAHII” is higher in “soluble fraction (log2)” value: -0.0558 for the first, 0.308 for the second.

Going from “HMAVLEGPAGKLGIVRFEANRSFTGMGHERFSSADQAFGTKPAAVVASRLFATGQVAGVHVYGNIITVELA” to “HMAVNDPDEKFIELGIPADWVQVVRKAGFQTVEALKTVENPNKLHQELSGLNKKMKLGLKTLSQDEVKDWF”, the “soluble fraction (log2)” value falls from ≥ 0.43 to -0.0206.

“HMAVPMTPGELVGSRVRVLWWKDGRGEVVALARGHQATLPARSEEPLRTGADAVVLEADEGTLVVTS” and “HMAVSGRMMVYEYIRQQMREGSLLPGSVLDLPAISHKLGISNTPLRDSLIRLEAEGYLTIYPRSKVVIN” are within 0.2 log units of each other in “soluble fraction (log2)” value: -0.192 for the first, -0.254 for the second.

First: HMAVTGRVDLRIKPWGYVSVDGAAKVSSPPTMQLKLAPGRHEIEITNPAGAAVTKTVDVIAGKSVTVQHN
Second: HMAVTKVKVITESSNLNIRKGPGTDQPIVGKAAHHEIITLVNKSNDQWWLVRTNDGEEGYSYSRYLEPVT
The “soluble fraction (log2)” value of the first is higher: 0.19 for the first, -0.153 for the second.

Going from “HMAVVEVATTTATEYKVEKGHHFKVGDFVMFKTGAKSYAITAIDTTSPIFDKITVGTTLGEAIPVGGTLM” to “HMAVVIPDVKGMTIEEAAPFLAEKGIRYNIIDSVFSKDVDPGAIVEIVPTPGSKVKEGRIVFVTINAK”, the “soluble fraction (log2)” value rises from -1.45 to -0.774.

First: HMAVVQMVDRPGGLDELLKDVVRAGVNFANAYGRTASDGNSAFFVIDIQDIPGARQKLADVGLQILADEAV
Second: HMAWAVDVGVVGLFPGKAVLVIDGGAPRTVPVGANVGGVRLLAVDQGSATVEIGGKRQRLAIGQHAH
The “soluble fraction (log2)” value of the first is lower: -0.512 for the first, 0.22 for the second.

First: HMAWIGEHTVTSEDTLSHIALKFYGHATPPYYKLIYEANKAIIGDNMNIIVPGQVLRIPALPEEL
Second: HMAYLTVPAVIAKDTKKSIQLLESKGFEVVIQDSIYTDTLARGTVIKQLPDPNATVKINRTVYLTVNRYTP
The “soluble fraction (log2)” value of the first is lower: -0.592 for the first, -0.369 for the second.

First: HMAYQQITIKANVVNVRQGPGLSYDVMSQANKGETMNVISQKNNWYQVRLSGDKIGWVASWLVDNT
Second: HMAYWVVKNNQVSLQINRSNYQITSTARALSNGNLGDEIDVKVLQSGVIKKAVVIGKGQVELLR
The “soluble fraction (log2)” value of the first is higher: ≥ 0.43 for the first, 0.163 for the second.

Going from “HMDAHIGTLTPRERETLHHLAIGHSNKVIAKKLNLAESTVKAYVQSILRKLGLSSRVQAAVYAIQHDIR” to “HMDAIDPKTVTSWADLWKPEYKSSLLLTDDAREVFQMALRKLGYSGNTTDPKEIEAAYNELKKLMPNVAAF”, the “soluble fraction (log2)” value falls from -0.23 to -0.474.

Compared with “HMDAIDQDGNHMTFKRWGEQLQEAFQALEAYDTDKAKTILNELIKFPIDSDLNNALKGILSNIDEMMA”, “HMDAINITTYKGQITLTGTKTGTLVGIYNTAGMLVKSMMSKGEKLYFDNLPSGVYIIKVGEEEPRKVQVI” is higher in “soluble fraction (log2)” value: -0.68 for the first, ≥ 0.43 for the second.

Going from “HMDAKIEYTMSDLIENRLINSDDASMRREKLSEILKIGYGNGKKTLHKLNSFGITREEFEEAMKEVNSH” to “HMDAKIKDYADAYAKMDPQQAASLFNNMTTGSLDLVAKILENIPANKRAAILEKMDVNAAAQVTEKMR”, the “soluble fraction (log2)” value rises from -0.0624 to 0.188.

“HMDAKSRFQEWVQAETGITPTYRIIGDSGPDHAKTFIAQVLLGERVVGEGVGSSKRAAEQAAAQAALAAM” and “HMDAMMQRLERLKELASSADGSKDYLILGPLRRDLAKLMALEDPKLRQGAEELDRKILAILS” are within 0.2 log units of each other in “soluble fraction (log2)” value: -0.346 for the first, -0.437 for the second.
